The text below walks through data of patent US20150353628A1 (published 2015).

Test [1] has as its target T1, pertussis toxin protein (Bordetella pertussis, UniProt P04977 35-269; P04978 28-226; P04979 29-227; P0A3R5 43-152; P04981 35-133).
T1 construct: also called PTx; PT
As to the kind of experiment: competition ELISA.

The target in test [2] is T1, pertussis toxin protein. As to the kind of experiment: ELISA, PTx coated, anti-mouse-HRP secondary. The source says: Specifically, the pertussis toxin protein was used for coating while anti-mouse-HRP or anti-human Fc-HRP were used as secondary antibodies. TMB(3,3′,5,5′-Tetramethylbenzidine) was used as substrate for the assay.
Background: In an ELISA, binding on a coated surface is turned into a signal by an enzyme label.

Test [3] has as its target T1, pertussis toxin protein. As to the kind of experiment: pertussis toxin competition assay (ELISA read-out).

B1: murine m1B7 antibody (antibody, V domains shown)
VH: QVQLQQPGSELVRPGASVKLSCKASGYKFTSYWMHWVKQRPGQGLEWIGNIFPGSGSTNYDEKFNSKATLTVDTSSNTAYMQLSSLTSEDSAVYYCTRWLSGAYFDYWGQGTTLTVSS
VL: QIVLTQSPALMSASPGEKVTMTCSASSSVSFMYWYQQKPRSSPKPWIYLTSNLPSGVPARFSGSGSGTSYSLTISSMEAEDAATYYCQQWSSHPPTFGSGTKLEIK
notes: also called parental murine 1B7 antibody; mouse 1B7
As to B1, the dissociation constant Kd was 0.4 nM in the test with pertussis toxin protein [1] and 0.15 nM with pertussis toxin protein [3]. In addition, the midpoint of the response with pertussis toxin protein [2], the EC50, lay at 0.19 nM.

B2: chimeric 1B7 antibody (antibody, V domains shown)
VH: QVQLQQPGSELVRPGASVKLSCKASGYKFTSYWMHWVKQRPGQGLEWIGNIFPGSGSTNYDEKFNSKATLTVDTSSNTAYMQLSSLTSEDSAVYYCTRWLSGAYFDYWGQGTTLTVSS
VL: QIVLTQSPALMSASPGEKVTMTCSASSSVSFMYWYQQKPRSSPKPWIYLTSNLPSGVPARFSGSGSGTSYSLTISSMEAEDAATYYCQQWSSHPPTFGSGTKLEIK
notes: also called ch1B7
As for B2, binding with pertussis toxin protein [1] was put at a Kd of 0.5 nM.

B3: murine m11E6 antibody (antibody, V domains shown)
VH: EVKVVESGGGLVQPGGSLRLSCTTSGFTFTDYYVSWVRQPPGKALEWLGFIRNKVNGYTTEFSSSVKGRFTISRDNSQSILYLQMNTLRVEDSATYYCARVSYYGRGWYFDYWGQGTTLTVSS
VL: DIVMTQSTSSLSASLGDRVTISCRASQDIDNYLSWFQQKPDGTVKLLIYYTSRLHSGVPSRFSGSGSGTDYSLTISSLDQEDIATYFCQQGNTFPWTFGGGTKLEIK
notes: also called parental murine 11E6 antibody; mouse 11E6
In the test with pertussis toxin protein [1], B3 returned a dissociation constant Kd of 5 nM. The molecule also had an EC50 in the test with pertussis toxin protein [2] of 2.7 nM.

B4: chimeric 11E6 antibody (antibody, V domains shown)
VH: EVKVVESGGGLVQPGGSLRLSCTTSGFTFTDYYVSWVRQPPGKALEWLGFIRNKVNGYTTEFSSSVKGRFTISRDNSQSILYLQMNTLRVEDSATYYCARVSYYGRGWYFDYWGQGTTLTVSS
VL: DIVMTQSTSSLSASLGDRVTISCRASQDIDNYLSWFQQKPDGTVKLLIYYTSRLHSGVPSRFSGSGSGTDYSLTISSLDQEDIATYFCQQGNTFPWTFGGGTKLEIK
notes: also called ch11E6
In the test with pertussis toxin protein [1], B4 showed a dissociation constant Kd of 5 nM.

The Kd is the concentration at which binding is half-saturated. What is called EC50 is the concentration at which the effect is half-maximal. The low end stands for an effect from little substance, the high end for a need for much substance.
